Experimental data reported in the Human Domainome abundance scans (Beltran et al. 2025).
± gives the uncertainty stated by the source.

B1: Storkhead-box protein 2, residues 64 to 141; numbered along this chain, Q9P2F5 (parent)
chain: SPISQSQFIPLGEILCLAISAMNSARKPVTQEALMEHLTTCFPGVPTPSQEILRHTLNTLVRERKIYPTPDGYFIVTP

Variants of: B1
Experiment: abundance fitness (aPCA) (normalised: wild type 0, dead -1); higher = more abundant; growth selection in yeast, the domain comes from the species named
Details: Homo sapiens

Variant	abundance fitness
SPISQSQFIPLGEILCLAISAMNSARKPVTQEALMEHLTTCFPGVPTPSSEILRHTLNTLVRERKIYPTPDGYFIVTP [Q50S]	-0.034 ± 0.069
SPISQSQFIPLGEILCLAISAMNSARKPVTQEALMEHLTTCFPGVPTPSVEILRHTLNTLVRERKIYPTPDGYFIVTP [Q50V]	-0.131 ± 0.059
SPISQSQFIPLGEILCLAISAMNSARKPVTQEALMEHLTTCFPGVPTPSTEILRHTLNTLVRERKIYPTPDGYFIVTP [Q50T]	-0.08 ± 0.086
SPISQSQFIPLGEILCLAISAMNSARKPVTQEALMEHLTTCFPGVPTPSYEILRHTLNTLVRERKIYPTPDGYFIVTP [Q50Y]	0.174 ± 0.19
SPISQSQFIPLGEILCLAISAMNSARKPVTQEALMEHLTTCFPGVPTPSWEILRHTLNTLVRERKIYPTPDGYFIVTP [Q50W]	-0.082 ± 0.067
SPISQSQFIPLGEILCLAISAMNSARKPVTQEALMEHLTTCFPGVPTPSQEIRRHTLNTLVRERKIYPTPDGYFIVTP [L53R]	-0.913 ± 0.092
SPISQSQFIPLGEILCLAISAMNSARKPVTQEALMEHLTTCFPGVPTPSQEITRHTLNTLVRERKIYPTPDGYFIVTP [L53T]	0.026 ± 0.066
SPISQSQFIPLGEILCLAISAMNSARKPVTQEALMEHLTTCFPGVPTPSQEIPRHTLNTLVRERKIYPTPDGYFIVTP [L53P]	-1.11 ± 0.19
SPISQSQFIPLGEILCLAISAMNSARKPVTQEALMEHLTTCFPGVPTPSQEIFRHTLNTLVRERKIYPTPDGYFIVTP [L53F]	-0.113 ± 0.12
SPISQSQFIPLGEILCLAISAMNSARKPVTQEALMEHLTTCFPGVPTPSQEIMRHTLNTLVRERKIYPTPDGYFIVTP [L53M]	0.019 ± 0.047
SPISQSQFIPLGEILCLAISAMNSARKPVTQEALMEHLTTCFPGVPTPSQEIQRHTLNTLVRERKIYPTPDGYFIVTP [L53Q]	-0.491 ± 0.11
SPISQSQFIPLGEILCLAISAMNSARKPVTQEALMEHLTTCFPGVPTPSQEIHRHTLNTLVRERKIYPTPDGYFIVTP [L53H]	-0.756 ± 0.18
SPISQSQFIPLGEILCLAISAMNSARKPVTQEALMEHLTTCFPGVPTPSQEICRHTLNTLVRERKIYPTPDGYFIVTP [L53C]	-0.113 ± 0.14
SPISQSQFIPLGEILCLAISAMNSARKPVTQEALMEHLTTCFPGVPTPSQEIVRHTLNTLVRERKIYPTPDGYFIVTP [L53V]	-0.003 ± 0.047
SPISQSQFIPLGEILCLAISAMNSARKPVTQEALMEHLTTCFPGVPTPSQEIDRHTLNTLVRERKIYPTPDGYFIVTP [L53D]	-0.747 ± 0.4
SPISQSQFIPLGEILCLAISAMNSARKPVTQEALMEHLTTCFPGVPTPSQEIERHTLNTLVRERKIYPTPDGYFIVTP [L53E]	-0.929 ± 0.15
SPISQSQFIPLGEILCLAISAMNSARKPVTQEALMEHLTTCFPGVPTPSQEIKRHTLNTLVRERKIYPTPDGYFIVTP [L53K]	-0.943 ± 0.28
SPISQSQFIPLGEILCLAISAMNSARKPVTQEALMEHLTTCFPGVPTPSQEIARHTLNTLVRERKIYPTPDGYFIVTP [L53A]	-0.124 ± 0.058

Variant	abundance fitness
SPISQSQFIPLGEILCLAISAMNSARKPVTQEALMEHLTTCFPGVPTPSQEIIRHTLNTLVRERKIYPTPDGYFIVTP [L53I]	-0.007 ± 0.11
SPISQSQFIPLGEILCLAISAMNSARKPVTQEALMEHLTTCFPGVPTPSQEIGRHTLNTLVRERKIYPTPDGYFIVTP [L53G]	-0.856 ± 0.068
SPISQSQFIPLGEILCLAISAMNSARKPVTQEALMEHLTTCFPGVPTPSQEISRHTLNTLVRERKIYPTPDGYFIVTP [L53S]	-0.586 ± 0.053
SPISQSQFIPLGEILCLAISAMNSARKPVTQEALMEHLTTCFPGVPTPSQEIYRHTLNTLVRERKIYPTPDGYFIVTP [L53Y]	-0.108 ± 0.079
SPISQSQFIPLGEILCLAISAMNSARKPVTQEALMEHLTTCFPGVPTPSQEIWRHTLNTLVRERKIYPTPDGYFIVTP [L53W]	-0.141 ± 0.024
SPISQSQFIPLGEILCLAISAMNSARKPVTQEALMEHLTTCFPGVPTPSQEILGHTLNTLVRERKIYPTPDGYFIVTP [R54G]	0.057 ± 0.1
SPISQSQFIPLGEILCLAISAMNSARKPVTQEALMEHLTTCFPGVPTPSQEILFHTLNTLVRERKIYPTPDGYFIVTP [R54F]	-0.082 ± 0.24
SPISQSQFIPLGEILCLAISAMNSARKPVTQEALMEHLTTCFPGVPTPSQEILAHTLNTLVRERKIYPTPDGYFIVTP [R54A]	0.015 ± 0.1
SPISQSQFIPLGEILCLAISAMNSARKPVTQEALMEHLTTCFPGVPTPSQEILNHTLNTLVRERKIYPTPDGYFIVTP [R54N]	0.012 ± 0.25
SPISQSQFIPLGEILCLAISAMNSARKPVTQEALMEHLTTCFPGVPTPSQEILMHTLNTLVRERKIYPTPDGYFIVTP [R54M]	0 ± 0.081
SPISQSQFIPLGEILCLAISAMNSARKPVTQEALMEHLTTCFPGVPTPSQEILLHTLNTLVRERKIYPTPDGYFIVTP [R54L]	-0.011 ± 0.039
SPISQSQFIPLGEILCLAISAMNSARKPVTQEALMEHLTTCFPGVPTPSQEILDHTLNTLVRERKIYPTPDGYFIVTP [R54D]	-0.365 ± 0.2
SPISQSQFIPLGEILCLAISAMNSARKPVTQEALMEHLTTCFPGVPTPSQEILCHTLNTLVRERKIYPTPDGYFIVTP [R54C]	-0.193 ± 0.17
SPISQSQFIPLGEILCLAISAMNSARKPVTQEALMEHLTTCFPGVPTPSQEILHHTLNTLVRERKIYPTPDGYFIVTP [R54H]	-0.367 ± 0.14
SPISQSQFIPLGEILCLAISAMNSARKPVTQEALMEHLTTCFPGVPTPSQEILEHTLNTLVRERKIYPTPDGYFIVTP [R54E]	0.013 ± 0.15
SPISQSQFIPLGEILCLAISAMNSARKPVTQEALMEHLTTCFPGVPTPSQEILIHTLNTLVRERKIYPTPDGYFIVTP [R54I]	-0.037 ± 0.19
SPISQSQFIPLGEILCLAISAMNSARKPVTQEALMEHLTTCFPGVPTPSQEILKHTLNTLVRERKIYPTPDGYFIVTP [R54K]	-0.027 ± 0.3
